Measured values reported in PMC11381335, “Unraveling the structure and function of a novel SegC protein interacting with the SegAB chromosome segregation complex in Archaea” (Nucleic Acids Research, 2024).

Experiments:
SegC (SSO0033) [1] = target: T1, SegC (SSO0033) (Saccharolobus solfataricus, UniProt Q981B4); experiment: malachite green phosphate release; assay type: biochemical; details: 10 uM protein, 1 mM NTP, 2 mM MgCl2, 100 mM NaCl, pH 7.5, 37 °C, 1 h; no DNA
T1 construct: full length 165 residues, C-terminal His6 (pET21b), E. coli BL21(DE3)

[2] = target: SegC labeled with Alexa488 green-fluorescent dye (Saccharolobus solfataricus); experiment: fluorescence polarisation; 10 nM Alexa488-labeled SegC; SegA or SegB in 2-fold serial dilution from 10 uM; room temperature, 30 min; 20 mM HEPES-NaOH pH 7.3, 100 mM NaCl, 2 mM MgCl2; concentration of protein that binds 50% of the labeled SegC
SegC (SSO0033) [3] = target: T1, SegC (SSO0033); experiment: X-ray crystal structure of ATP-soaked SegC crystals; assay type: binding; details: apo crystals soaked within one minute in 20 mM ATP, 2 mM MgCl2, pH 7.5; ADP modelled at the interface of two dimers (Tyr61, Arg73)
[4] = target: SegC (SSO0033) (Saccharolobus solfataricus); experiment: crystal structure; SegC crystals grown in 100 mM Tris-HCl pH 8.5, 300 mM potassium thiocyanate, 20°C; 2.8 Å; also soaked with 20 mM ATP (SegC-ADP)

T1 sequence (Q981B4 entry or part of it): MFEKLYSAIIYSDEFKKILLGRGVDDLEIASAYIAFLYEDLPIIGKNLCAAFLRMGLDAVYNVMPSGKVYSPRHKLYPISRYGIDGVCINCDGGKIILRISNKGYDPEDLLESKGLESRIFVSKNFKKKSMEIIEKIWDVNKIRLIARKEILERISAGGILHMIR
SegC labeled with Alexa488 green-fluorescent dye (Saccharolobus solfataricus), sequence (Q981B4 entry or part of it): as above

With `Nc1ccn([C@@H]2O[C@H](COP(=O)(O)OP(=O)(O)OP(=O)(O)O)[C@@H](O)[C@H]2O)c(=O)n1` [CTP] the “malachite green phosphate release” value (SegC (SSO0033) [1]) was “SegC exhibited catalytic activity against all of the tested NTPs with no apparent preference”.
SegA (natural protein) showed a Kd [2] of 1800 nM.
With SegB (natural protein) the Kd [2] was 1400 nM.
For `Nc1ncnc2c1ncn2[C@@H]1O[C@H](COP(=O)(O)OP(=O)(O)O)[C@@H](O)[C@H]1O` [ADP], the “X-ray crystal structure of ATP-soaked SegC crystals” value (SegC (SSO0033) [3]) was “In this SegC-ADP complex structure, two residues (Tyr61 and Arg73) were found to interact”.
For SegC (SSO0033) (natural protein), the stoichiometry N [4] was 4.
